Laboratory results published in article PMC4218836, “Generation of a Single Chain Antibody Variable Fragment (scFv) to Sense Selectively RhoB Activation” (PLoS ONE, 2014).

How the values were obtained:
GST-RhoCL63 = GST-RhoCL63 (Homo sapiens (species assumed), UniProt P08134, L63)
GST-RhoAL63 = GST-RhoAL63 (Homo sapiens (species assumed), UniProt P61586, L63)
GST-RhoBL63 [1] = biological target: T1, GST-RhoBL63 (Homo sapiens (species assumed), UniProt P62745, L63)
[2] = biological target: T2, recombinant wild type GST-RhoB (Homo sapiens (species assumed), UniProt P62745); assay: ELISA; purified scFvs on wild type GST-Rho loaded with GTPγS (from crude bacterial extracts) and captured on glutathione coated plates; GDP-loaded GST-Rho beside it; details: one partner purified
T2 construct: RhoB wild type, loaded with GDP or GTPγS; also called RhoBwt; GST-RhoBwt; source: E. coli BL21, crude bacterial extract, nucleotide-loaded
T2 sequence (P62745 whole entry): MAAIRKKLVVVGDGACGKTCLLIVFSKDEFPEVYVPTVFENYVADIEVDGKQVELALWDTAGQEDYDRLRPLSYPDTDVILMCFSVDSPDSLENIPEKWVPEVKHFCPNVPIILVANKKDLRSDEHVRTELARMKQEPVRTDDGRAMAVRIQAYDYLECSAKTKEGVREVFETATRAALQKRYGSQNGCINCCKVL

GST-RhoBL63 [3] = biological target: T1, GST-RhoBL63; assay: SPR; BIAcore T200; GST fusion Rho captured (about 1000 RU) by anti-GST antibody on CM5 chip, scFvs injected 6.25-100 nM, single-cycle kinetics, HBS-P pH 7.4, 25°C, GST alone as reference channel, 1:1 Langmuir model; details: both partners purified
6xHis-RhoAL63 = biological target: T3, 6xHis-RhoAL63 (Homo sapiens (species assumed), UniProt P61586, L63); assay: ELISA; competitive ELISA (method of Friguet): purified scFvs (10^-9-10^-8 M) incubated until equilibrium (30 min, 23-25°C) with a range of concentrations of soluble 6xHis-RhoL63, free scFv then quantified on GST-Rho-coated plates with anti-c-myc-HRP; nonlinear regression; details: both partners purified
T3 construct: RhoA, mutant L63, cDNA in the pHIS parallel2 vector; also called 6his-RhoL63; source: E. coli BL21, purified (Ni-NTA, native condition); not shown: 6xHis, N-terminal, kept
T3 sequence (P61586 other isoform, or with tags, fused parts or gaps L63 | L63): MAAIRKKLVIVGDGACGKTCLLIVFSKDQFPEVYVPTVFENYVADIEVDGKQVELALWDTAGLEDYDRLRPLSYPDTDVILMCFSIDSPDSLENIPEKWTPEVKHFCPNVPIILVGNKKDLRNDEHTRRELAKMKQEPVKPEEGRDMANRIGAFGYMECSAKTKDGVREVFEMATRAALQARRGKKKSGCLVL

6xHis-RhoBL63 = biological target: T4, 6xHis-RhoBL63 (Homo sapiens (species assumed), UniProt P62745, L63); assay: as above; details: both partners purified
T4 construct: RhoB, mutant L63, cDNA in the pHIS parallel2 vector; also called 6his-RhoL63; source: E. coli BL21, purified (Ni-NTA, native condition); not shown: 6xHis, N-terminal, kept
T4 sequence (P62745 other isoform, or with tags, fused parts or gaps L63 | L63): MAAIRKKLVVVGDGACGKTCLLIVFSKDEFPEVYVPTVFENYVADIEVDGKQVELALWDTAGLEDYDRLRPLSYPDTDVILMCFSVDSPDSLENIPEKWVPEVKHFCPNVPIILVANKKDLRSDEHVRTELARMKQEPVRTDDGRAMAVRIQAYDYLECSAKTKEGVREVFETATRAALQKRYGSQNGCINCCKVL

[4] = biological target: T5, recombinant wild type GST-RhoA (Homo sapiens (species assumed), UniProt P61586); assay: ELISA; purified scFvs on wild type GST-Rho loaded with GTPγS (from crude bacterial extracts) and captured on glutathione coated plates; GDP-loaded GST-Rho beside it; details: one partner purified
T5 construct: RhoA wild type, loaded with GDP or GTPγS; also called RhoAwt; RhoA-GTPγS; source: E. coli BL21, crude bacterial extract, nucleotide-loaded
T5 sequence (P61586 whole entry): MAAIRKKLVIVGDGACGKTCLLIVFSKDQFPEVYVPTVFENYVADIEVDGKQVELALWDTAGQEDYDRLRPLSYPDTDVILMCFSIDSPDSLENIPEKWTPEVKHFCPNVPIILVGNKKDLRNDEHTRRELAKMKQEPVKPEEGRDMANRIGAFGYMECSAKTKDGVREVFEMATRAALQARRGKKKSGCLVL

endogenous RhoA = biological target: T6, endogenous RhoA (human (endogenous in HeLa), UniProt P61586); assay: pull-down; CBD-pulldown: scFv-bound chitin beads (0,5-1 µg) with HeLa cell extracts loaded with GTPγS (100 µM), 45 min at 4°C; Western blot with anti-RhoA, anti-RhoB, anti-RhoC; GDP-loaded extracts beside it; details: one partner purified
T6 construct: RhoA, endogenous in HeLa S3 cells; source: endogenous, HeLa cell extract
T6 sequence (P61586 whole entry): as above

endogenous RhoB = biological target: T7, endogenous RhoB (human (endogenous in HeLa), UniProt P62745); assay: as above; details: one partner purified
T7 construct: RhoB, endogenous in HeLa S3 cells; source: endogenous, HeLa cell extract
T7 sequence (P62745 whole entry): as the sequence (P62745 whole entry) above

endogenous RhoC = biological target: T8, endogenous RhoC (Homo sapiens (HeLa S3), UniProt P08134); assay: as above; details: one partner purified
T8 construct: RhoC, endogenous in HeLa S3 cells; source: endogenous, HeLa cell extract
T8 sequence (P08134 whole entry): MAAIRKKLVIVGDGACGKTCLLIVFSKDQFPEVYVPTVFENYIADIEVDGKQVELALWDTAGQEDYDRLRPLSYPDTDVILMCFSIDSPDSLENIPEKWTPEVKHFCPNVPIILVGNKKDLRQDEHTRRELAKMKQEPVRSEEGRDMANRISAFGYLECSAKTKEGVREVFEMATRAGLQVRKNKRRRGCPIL

T1 sequence (P62745 other isoform, or with tags, fused parts or gaps L63 | L63): as the sequence (P62745 other isoform, or with tags, fused parts or gaps L63 | L63) above
GST-RhoCL63, sequence (P08134 other isoform, or with tags, fused parts or gaps L63 | L63): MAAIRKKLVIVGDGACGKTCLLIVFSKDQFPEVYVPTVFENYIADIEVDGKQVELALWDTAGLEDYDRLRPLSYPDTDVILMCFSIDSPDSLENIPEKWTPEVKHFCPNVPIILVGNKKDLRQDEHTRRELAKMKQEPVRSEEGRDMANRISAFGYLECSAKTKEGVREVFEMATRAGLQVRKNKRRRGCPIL
GST-RhoAL63, sequence (P61586 other isoform, or with tags, fused parts or gaps L63 | L63): as the sequence (P61586 other isoform, or with tags, fused parts or gaps L63 | L63) above

B1: C1 (scFvC1) (antibody, V domains shown)
VH: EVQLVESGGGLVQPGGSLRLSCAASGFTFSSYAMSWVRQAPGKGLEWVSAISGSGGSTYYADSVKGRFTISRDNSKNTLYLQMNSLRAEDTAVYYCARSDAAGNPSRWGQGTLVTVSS
VL: SSELTQDPAVSVALGQTVRITCQGDSLRSYYASWYQQKPGQAPVLVIYGKNNRPSGIPDRFSGSSSGNTASLTITGAQAEDEADYYCNSRDSSGNHAYVFGGGTKLTVL
**Q.** Does B1 bind (GST-RhoCL63)?
**A.** binds

**Q.** Does B1 bind (GST-RhoAL63)?
**A.** binds

**Q.** Does B1 bind (GST-RhoBL63 [1])?
**A.** binds

B2: scFvE3 (soluble, in fusion with the N-terminal domain of the phage P3 protein) (scFv, V domains shown)
VH: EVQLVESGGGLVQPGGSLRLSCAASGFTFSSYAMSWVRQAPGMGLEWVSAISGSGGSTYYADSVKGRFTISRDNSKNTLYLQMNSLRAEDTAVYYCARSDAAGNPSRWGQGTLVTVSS
VL: SSELTQDPAVSVALGQTVRITCQGDSLRSYYTSWYQQKPGQAPVRVIYGKNNRPSGVPDRFSGSSSGNTASLTITGAQAEDEADYYCNSRDSSGNHAYVFGGGTKLTVL
notes: evolved variant of scFvC1 with 4 substitutions located within the scaffold, without D100N; Isolated by subtractive panning (GST-RhoAL63 counter-selection, GST-RhoBL63 selection); also called clone E3; source: E. coli XL1 blue, periplasmic fraction, purified (Ni-NTA); not shown: NP3 (N-terminal domain of the phage P3 protein), C-terminal, kept
**Q.** Does B2 bind [2]?
**A.** binds

**Q.** What about the “fold higher affinity than for GST-RhoAL63” value (GST-RhoBL63 [3]) of the same binder?
**A.** 10 fold

**Q.** And the Kd (6xHis-RhoAL63)?
**A.** 22.9 nM

**Q.** What about the Kd (6xHis-RhoBL63) of the same binder?
**A.** 3.63 nM

B3: scFvF7 (soluble, in fusion with the N-terminal domain of the phage P3 protein) (scFv, V domains shown)
VH: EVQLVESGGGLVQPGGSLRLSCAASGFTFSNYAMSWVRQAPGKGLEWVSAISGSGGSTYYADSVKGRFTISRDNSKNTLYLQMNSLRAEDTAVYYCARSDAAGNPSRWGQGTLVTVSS
VL: SSELTQDPAVSVALGQTVRITCQGDSLRSYYASWYQQKPGQAPVLVIYGKNNRPSGIPDRFSGSSSGNTASLTITGAQAEDEADYYCNTRDSSGNHAYVFGGGTKLTVL
notes: evolved variant of scFvC1 (VH, linker, VL); also called clone F7; source: E. coli XL1 blue, periplasmic fraction, purified (Ni-NTA); not shown: NP3 (N-terminal domain of the phage P3 protein), C-terminal, kept
**Q.** Does B3 bind [4]?
**A.** binds

**Q.** Does B3 bind [2]?
**A.** binds

**Q.** And the Kd (6xHis-RhoAL63)?
**A.** 2.33 nM

**Q.** What about the Kd (6xHis-RhoBL63) of the same binder?
**A.** 4.94 nM

B4: scFvD10 (soluble, in fusion with the N-terminal domain of the phage P3 protein) (scFv, V domains shown)
VH: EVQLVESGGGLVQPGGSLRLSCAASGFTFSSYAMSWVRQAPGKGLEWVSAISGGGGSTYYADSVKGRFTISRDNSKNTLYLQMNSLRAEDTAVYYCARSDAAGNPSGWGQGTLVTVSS
VL: SSELTQDPAVSVALGQTVRITCQGDSLRSYYASWYQQKPGQAPVLVIYGKNNRPSGIPDRFSGSSSGNTASLTITGAQAEDEADYYCNSRDSSGNHAYVFGGGTKLTVL
notes: evolved variant of scFvC1 (VH, linker, VL); also called clone D10; source: E. coli XL1 blue, periplasmic fraction, purified (Ni-NTA); not shown: NP3 (N-terminal domain of the phage P3 protein), C-terminal, kept
**Q.** Does B4 bind [4]?
**A.** binds

**Q.** Does B4 bind [2]?
**A.** no binding

**Q.** And the Kd (6xHis-RhoAL63)?
**A.** 3.38 nM

B5: scFvF7-NP3-CBD (scFvF7 in fusion with the Chitin Binding Domain, on chitin beads) (scFv, V domains shown)
VH: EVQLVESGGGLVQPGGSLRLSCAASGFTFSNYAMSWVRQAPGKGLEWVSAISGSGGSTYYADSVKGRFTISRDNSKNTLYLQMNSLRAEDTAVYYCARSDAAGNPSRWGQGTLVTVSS
VL: SSELTQDPAVSVALGQTVRITCQGDSLRSYYASWYQQKPGQAPVLVIYGKNNRPSGIPDRFSGSSSGNTASLTITGAQAEDEADYYCNTRDSSGNHAYVFGGGTKLTVL
notes: as the scFv of m1; Order scFv, NP3, CBD from the plasmid pHEN-scFv-NCBD; not shown: NP3 (N-terminal domain of the phage P3 protein), C-terminal, kept
**Q.** What does the source list for B5?
**A.** binding result (endogenous RhoA): binds; binding result (endogenous RhoB): binds; binding result (endogenous RhoC): binds

B6: scFvD10-NP3-CBD (scFvD10 in fusion with the Chitin Binding Domain, on chitin beads) (scFv, V domains shown)
VH: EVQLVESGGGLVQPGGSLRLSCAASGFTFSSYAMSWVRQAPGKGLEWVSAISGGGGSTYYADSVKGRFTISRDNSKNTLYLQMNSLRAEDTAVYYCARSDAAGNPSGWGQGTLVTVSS
VL: SSELTQDPAVSVALGQTVRITCQGDSLRSYYASWYQQKPGQAPVLVIYGKNNRPSGIPDRFSGSSSGNTASLTITGAQAEDEADYYCNSRDSSGNHAYVFGGGTKLTVL
notes: as the scFv of m2; Order scFv, NP3, CBD from the plasmid pHEN-scFv-NCBD; not shown: NP3 (N-terminal domain of the phage P3 protein), C-terminal, kept
**Q.** Does B6 bind (endogenous RhoA)?
**A.** binds

**Q.** Does B6 bind (endogenous RhoC)?
**A.** binds

B7: scFvE3-NP3-CBD (scFvE3 in fusion with the Chitin Binding Domain, on chitin beads) (scFv, V domains shown)
VH: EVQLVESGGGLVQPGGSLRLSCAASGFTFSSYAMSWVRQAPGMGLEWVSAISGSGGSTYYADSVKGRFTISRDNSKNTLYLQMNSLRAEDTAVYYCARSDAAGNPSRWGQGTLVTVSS
VL: SSELTQDPAVSVALGQTVRITCQGDSLRSYYTSWYQQKPGQAPVRVIYGKNNRPSGVPDRFSGSSSGNTASLTITGAQAEDEADYYCNSRDSSGNHAYVFGGGTKLTVL
notes: as the scFv of m3; Order scFv, NP3, CBD from the plasmid pHEN-scFv-NCBD; not shown: NP3 (N-terminal domain of the phage P3 protein), C-terminal, kept
**Q.** Does B7 bind (endogenous RhoB)?
**A.** binds
